Assay [1] has as its target T1, Shigella flexneri Spa15 (residues 1-133), N-terminal His tag, unlabelled (Shigella flexneri), P35530.
T1 chain: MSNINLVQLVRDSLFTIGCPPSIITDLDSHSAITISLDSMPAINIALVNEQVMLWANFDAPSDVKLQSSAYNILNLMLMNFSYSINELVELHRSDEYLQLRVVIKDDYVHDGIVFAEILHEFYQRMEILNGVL
In words: SEC; HiLoad 26/60 Superdex 75, 20 mM Tris-HCl (pH 7.5), 150 mM NaCl; Spa15 alone. The settings on record: remark: other sources report otherwise.

For assay [2], the target named is T1, Shigella flexneri Spa15 (residues …). Description: multi-angle laser light scattering; co-purified Spa15:IpgB1 complex; data not shown. The settings on record: remark: other sources report otherwise.

B1: Shigella flexneri Spa15 (residues 1-133), N-terminal His tag, unlabelled, P35530 1-133 (natural protein)
chain: T1 chain
As to B1, the stoichiometry N in assay [1] and in assay [2] was 2 in each case.

The values are drawn from PMC3021122.
